Laboratory results reported in patent CN102731650A (SICHUAN HUIYU PHARMACEUTICAL CO LTD, dated 2012).

Molecular target: T1, SP62 (biotin-labelled peptide containing the 2F5 epitope sequence) (HIV-1, biotin-labelled (position not given))
T1 construct: The results speak of the 'MPER peptide' or 'peptide'; also called 2F5多肽; gp41 MPER多肽
T1 peptide: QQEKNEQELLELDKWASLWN
Assay: ELISA

B1: A2 (light-chain shuffled clone, Fab on phage) (Fab, V domains shown)
VH: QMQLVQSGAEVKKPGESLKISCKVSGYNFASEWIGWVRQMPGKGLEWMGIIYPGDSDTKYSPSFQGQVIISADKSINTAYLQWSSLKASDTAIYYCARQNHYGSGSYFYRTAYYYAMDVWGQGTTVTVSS
VL: DIQLTQSPSSLSASLGDKVTITCRASQHIKKYLNWYQQKPGKAPKLLIYGALNLQSGVPSRFSGRGSGTDFTLTISSLQPEDFATYYCQQSYSTPFTFGPGTKVDIKR
B1: binds.
